Measurements from the nanobody polyreactivity screen of Harvey et al. (2022).

assay: yeast display, Sf9 membrane polyspecificity reagent, FACS + sequencing; frameworks hold sequencing errors
In short: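 After 36–48 hours of galactose induction, yeast (Saccharomyces cerevisiae BJ5465) displaying a synthetic nanobody library were stained at 4 °C for 1 hour with 10% biotinylated, detergent-solubilized Sf9 membrane reagent. Streptavidin microbeads enriched the stained cells before FACS sorting into low and high (top ~1%) gates on anti-HA and streptavidin fluorescence. Each clone's polyreactivity label reflects its gate of origin.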

| Sequence | polyreactivity (PSR sort gate) |
| --- | --- |
| QVQLVESGGGLVQAGGSLRLTCAASGSIFYSYAMGWYRQAPGKERELVAAISWDASTYYADSVNGRFTISRDNAKNTVYLQMHSLKPEDSAVYYCNADIPYFFVFDAYDYWGQGTQVTVSS | low polyreactivity |
| QVQLVESGGGLVQAGGSLRLTCAASGSIFYYYAMGWYRQAPGKERELVASITYRGGSTYYADSVKGRFTISRDYAKNTVYLLMNSLKPEDTAFYYCAVVGYRYRHYYWGQGTQVTVSS | high polyreactivity |
| QVQLVESGGGLVQAGGSLRLTCAASGSILYYNAMGWYRQAPGKEREFVAAISDSGSSTYYADSVKGRFTISRDNAKNTVYLQMNSLKPEDTAVYYCNAYQGDKYDSWGQGTQVTVSS | low polyreactivity |
| QVQLVESGGGLVQAGGSLRLTCAASGSIYVGNAMGWNRHAPGKEREFVAAISRSGGRTYYADSVKGRFTISRDNEKNTVYLQMNSLKPEDTAVYYCNAYGWEQRQMDSWGQGTQVTVSS | high polyreactivity |
| QVQLVESGGGLVQAGGSLRLTCAASGSNFVYNAMGWYRQAPGKERELVAAISSRGGSTYYADSVKGRFTISRDNAKNTVYLQMKSLKPEDTAVYYCNAYGPRAYRGGSWGQGTQVTVSS | high polyreactivity |
| QVQLVESGGGLVQAGGSLRLTCAASGSSLDHYTMGWYRQAPGKEMELVAGIRWTGGRTYYADSVKGRFTISRDNAKNTVYLQMNSLKQEDNAVYYCAKTGWYGPVLRFYYWGQGTQVTVSS | high polyreactivity |
| QVQLVESGGGLVQAGGSLRLTCAASGSTFGWYAMGWYRQAPGKERELVAAIRSNGGSTYYADSVKGRFTISRDNAKNTVYLHMNSLKPEDTAVYYCAGRGSPSKHHWYDYWGQGTQVNVSS | low polyreactivity |
| QVQLVESGGGLVQAGGSLRLTCAASGSTFRWYAMGWYRQAPAKERELVAAIRSAGSTDYADSVKGRFTISRDNAKNTVYLQINSLKPEDTAVYYCAAYFRYRSSRYGYWGQGTQVTVSS | high polyreactivity |
| QVQLVESGGGLVQAGGSLRLTCAASGSTFRYYDMGWYRQAPGKERELVAAITTSGDDTYYADSVKRRFTISRDNAKNSVYLPMNSLKPEDTAVYYCAADGYGGHKYELESWGQGTQVTVSS | low polyreactivity |
| QVQLVESGGGLVQAGGSLRLTCAASGSTFSYYAMGWYRQPPRKERELVAVITWSGASTYYADSVKGRFTISRDNAKNTVYLQMNSLKPEDTAVYYCAADKYLSYDYWGQGTQVSVSS | low polyreactivity |
| QVQLVESGGGLVQAGGSLRLTCAASGSTFYFNAIGWYRQAPGKESELVAAISGGGRTNYADSVKGRFTISRDNAKNTVYLQMNSLKPEDTAVYYCAARNRGLRLSNYFGGNYNRDYWGQGTQVTVSS | low polyreactivity |
| QVQLVESGGGLVQAGGSLRLTCAASGSTFYRNAMGWYRQAPVKERELVATISSSDGSTYYADSVKGRFTISRDNAKNTVYLQMNSLKPEDTAVYYCATEIYYTKTYDSWGQGTQVTVSS | low polyreactivity |
| QVQLVESGGGLVQAGGSLRLTCAASGSTFYYNAMGWYRQAPAKERELVADISWRGGITYYADSVKGRFTISRDNAKNTVYLQMNSLKPEDTAVYYFKADAESFDDGYWGQGTQVTVSS | low polyreactivity |
| QVQLVESGGGLVQAGGSLRLTCAASGSTIADNAMGWYRPAPGTERELVAGITRRGGSTYYADSVKGRFTISRDNAKNTVYLQMNSLKPEDTAVYYCNKGPVRGRYSVWPIEMDYWGQGTQVTVSS | low polyreactivity |
| QVQLVESGGGLVQAGGSLRLTCAASGSTSEVYAMGWYRQAPGKEREFVAAISRSGGTTYYADSVKGRFTISRDNAKNTVYLQMKSVKPEDTAVYYCNARGYSGVSGKYGYWGQGTQVTVSS | high polyreactivity |
| QVQLVESGGGLVQAGGSLRLTCAASGSTSPANTMGWYRQAPGKETEFVAGISRRGGRTYYADSVKGRFTISRDNAKNTVYLQMNSLKPEDTAVFYCATALIVRCPSRYEYWGQGTQVTVSS | high polyreactivity |
| QVQLVESGGGLVQAGGSLRLTCAATGRIFSRYAMGWYRQAPGKERELVAAISRSGGSTYYADSVKGRFTISRDNAKNTVYFQMNSLKPEDTAVYYCAARNVFSYPPGSYYYWGQGTQVTVSS | high polyreactivity |
| QVQLVESGGGLVQAGGSLRLTCAGSGSTYGKYAIGGYRQAPGKERQLVAAISYRGGRTFYADSVKGRFTISRDNAKNTVFLQMKSLKPEDTAVYYCAAYPGVSRGTGPRRYDYWGQGTQVTVSS | high polyreactivity |
| QVQLVESGGGLVQAGGSLRLTCASSGIIFKLYAMGWYRQAPAKESELVAAITYRGGTTYYADSVKGRFTITRDNAKNTVYLQMNSLKPEDTAVYYCAVAVTSYSSKKLYYWGQGTQVTVSS | low polyreactivity |
| QVQLVESGGGLVQAGGSLRLTCASSGRILVSYAIGWYRQAPGKERELVAAISRSGGSTYYADSVKGRFTISRDIAKNTVYLQMNSLKTEDTAVYYCNVYRFSRYDYWGQGTKVTVSS | high polyreactivity |
| QVQLVESGGGLVQAGGSLRLTCDASGRIFVHNAMGWYRQAPGKERELVAAISWSGSSTYYADSVKGRFTISRDNAKNSVYLQMNSLKPEDTAVYYCLGQGTQVTVSS | low polyreactivity |
| QVQLVESGGGLVQAGGSLRLTCGASGRIFSFYVMGWYRQAPGKERELVAAISLSGGSTYYADSVKGRFTISRDNAKNTVYLQMNSLKPEDTAVYYCAARYASPRYKSKMDYWGQGTQVTVSS | high polyreactivity |

| Sequence | polyreactivity (PSR sort gate) |
| --- | --- |
| QVQLVESGGGLVQAGGSLRLTSAASGFIFWPYLMGWYRQAPGKDRELVAAISQGDGSTYYADSVKVRFTISRDNAKNTVYLQMNSLKGEDTAVYYCAADVTVAWYPVYPGFYYWGQGTQVTVSS | low polyreactivity |
| QVQLVESGGGLVQAGGSLRLTSAASGRIFGYYAMGWYRQAPGKERDLVAAIRYSSGRTYYADSVKGRFTISRDNAKNIVYLQMNSLKPEDTAVYYGNAGYLFLRSYPHDYWGQGTQVTVSS | high polyreactivity |
| QVQLVESGGGLVQAGGSLRLTSAASGSTFLKYTMGWYRQAPGKERELVAGITYSGGSTSYADSVKGRFTISRDNAKNTVYFQMNSLKPEDTAVYYSAAARNTVYSYRGLFYWGQGTQVTLSS | high polyreactivity |
| QVQLVESGGGLVQAGGSLRRSCAAYGRIFTMNAMGWYRQAPGKESELVAVISRSGCSTYYADSVKGRFTISRDNAKNTVYLQMNSLNPEDTAVYYCNAVPIYYAWRRNKPFDYWGLGTQVTVSS | low polyreactivity |
| QVQLVESGGGLVQAGGSLRVSCAASGFIIEVNSMAWYRQAPGKERELVARIDWSGGSTYYADSVKGRFTISRDNAKNTVFLQMNSLIPEDTAVYYCAVVASRSHTETPEYDYWGQGTQVTVSS | low polyreactivity |
| QVQLVESGGGLVQAGGSLRVSCAASGFTFGPNAMGWYSQAPGKERELVAAISQSGGSTYADSEKGRFTISRDNAKNTDYLHMNSLKPEDTAVYYCAAEFPDYYWWYEYWGQGTQVTVSS | high polyreactivity |
| QVQLVESGGGLVQAGGSLRVSCAASGFTFYLYAMGWYRQAPGKERELVAAITWSGGRTYYADSVKGRFTISRDNAKNTVYLQMNSLKPEDTAVYNCAAVVRKQLSAPSDYWGQGTQVTVSS | high polyreactivity |
| QVQLVESGGGLVQAGGSLRVSCAASGFTFYRYAMGWYRQAPGKERELVAAITWSGGSTYYADSVKGRFTISRDNAKNTVYLQMNSLKPEDTAVYYCAADIYDGGFDYWGQGTQVTVSS | low polyreactivity |
| QVQLVESGGGLVQAGGSLRVSCAASGIIFRIYAMGWYRQAPGKEREFVAAISGSGDSTYYADSVKGRLTISRDNAKTTVYLQMNSLKPEDTAVYYCAADWTLVYYHEDYWGQGTQVTVSS | low polyreactivity |
| QVQLVESGGGLVQAGGSLRVSCAASGRIFFPYDMGWYRQAPGKERELVAAITNSGGRTYYADSVKGRFTISRDKAKNTVYLQMNSLKPEDTAVYYCNADAYEFRWVKHYDYWGQGTQVTVSS | low polyreactivity |
| QVQLVESGGGLVQAGGSLRVSCAASGRIFRWYAMGWYRQAPGKERELVAAITSRGTSTYYADSVKGRFTISRDNAKNTDYLQMNSLKPEDTAVYYCNAVPSRGYDYWGQGTQVTVSS | high polyreactivity |
| QVQLVESGGGLVQAGGSLRVSCAASGRIFVQYDMGWYRQAPGKERELVAAINDSGDITYYADSVKGRFTISRDNAKNTVYLQMTSLKPEDTAVYSCAASAAYYGFYKSVTYDYWGQGTQVSVSS | low polyreactivity |
| QVQLVESGGGLVQAGGSLRVSCAASGRIFWYNDMGWYRQAPGKERELVAAITARGTRTHYADSVKGRFTISRDNAKKTVYLQMNSLKPEDTAVYYCAKGWYTVVWDAPVFSERGEYWGQGTQVTVSS | low polyreactivity |
| QVQLVESGGGLVQAGGSLRVSCAASGRTFGYNAMGWYRQAPGKERELVATISWGGGSTYYADSVKVRFTISRDNAKNTVYLQMNSLKPEDTAVYYCAATYWTYPYHYQYKYDYWGQGTQVTVSS | high polyreactivity |
| QVQLVESGGGLVQAGGSLRVSCAASGRTFRSYAMGWYRQAPGKERELVAAIRRGGSTNYADSVKGRFPISRDNAKYTVYLQMNSLKPEDTAVYYCAARYTRWRYNYKDYDYWGQGTQVTVSS | high polyreactivity |
| QVQLVESGGGLVQAGGSLRVSCAASGRTFRYYAMGWYRQAPGKERELVASISDGGSTNYADSVKGRFTISRDNAKNTVYLQMNSQKPEDTAVYYCNAKAYVWYLYDEFGYWGQGTQVTVSS | low polyreactivity |
| QVQLVESGGGLVQAGGSLRVSCAASGSIFGYYAMGWSRQAPGKERELVAGINWSGGSTYADSVKGRFTISRDNAKNTVYLKMNSLKPEDTAVYYCYLRYRKYSSAKYDYWGQGTQVTVSS | high polyreactivity |
| QVQLVESGGGLVQAGGSLRVSCAASGSIFQYYGMGWYRQAPGKERELVAAISRGGSTNYADSVKGRFTISRDYAKNTGYLQMNSLKPEDTAVYYCNARTYRKAYSGYNYWGQGTQVTVSS | high polyreactivity |
| QVQLVESGGGLVQAGGSLRVSCAASGSIFRWYTMGCYRQAPGKEREFVADISWSGGRTYYADSVKGRFTISRDNASYSVYLQMNCLKPEDTAVYYCNAEHNTRYDYWGQGTQVSVSS | low polyreactivity |
| QVQLVESGGGLVQAGGSLRVSCAASGSIFSIYAMGWYRQAPGKERELVASITRSSGRTYYADSVKGRFTISRDNAKKTVYLQMNSLKPEDTAVYYCAKDYIPLALDADDYWGQGTQVSVSS | low polyreactivity |
| QVQLVESGGGLVQAGGSLRVSCAASGSTFDPNAMGWYRQATGKERELVADIDSGGSTYYADSVKGRFTISRDNAKNTVYLQMNSMKPEDTAVYYCATKQPTWVPRVIISYTKFDYWGQGTQVTVSS | low polyreactivity |
